We go through 4 molecules from patent US7414023 (dated 2008).

Bridge positions count the residues as written; N and C are the ends. Ends that are not written are not given here.

What is called Kd is the concentration at which binding is half-saturated. Read a high Kd as lower affinity. One may read the IC50 as the concentration at which inhibition is half-maximal. A low value points to greater potency in that assay.

In experiment [1] the target is T1, cathepsin G (human, UniProt P08311).
T1 chain: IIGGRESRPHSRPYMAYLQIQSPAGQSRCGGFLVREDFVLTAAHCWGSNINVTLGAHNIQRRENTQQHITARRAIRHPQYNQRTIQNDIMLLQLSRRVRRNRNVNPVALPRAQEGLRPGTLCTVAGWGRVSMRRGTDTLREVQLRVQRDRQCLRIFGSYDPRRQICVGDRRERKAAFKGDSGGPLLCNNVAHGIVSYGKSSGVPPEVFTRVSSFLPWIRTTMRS
Description: other, IFMA.

Experiment [2] addresses T2, PSA (human, UniProt P07288). Description: SPR, 0 uM Zn2+. Background: In SPR one partner is held on a chip, and binding of the other changes the refractive index at the surface.
The target in experiment [3] is T2, PSA. Briefly: SPR, 30 uM Zn2+.
Experiment [4] has as its target T2, PSA. Briefly: SPR, 1 uM Zn2+.
In experiment [5] the target is trypsin. Description: other, IFMA.
Experiment [6] has as its target PSA-ACT complex (human, UniProt P07288). Description: other, IFMA.
For experiment [7], the target named is T2, PSA. Briefly: SPR, 10 uM Zn2+.
Experiment [8] concerns the target T2, PSA. Description: competition, IFMA with free PSA.
For experiment [9], the target named is T2, PSA. Briefly: SPR.
Experiment [10] addresses PSA-API complex (human, UniProt P07288). Description: other, IFMA.
For experiment [11], the target named is hK2 (human, UniProt P20151). Description: other, IFMA.
Sequence of hK2 (P20151 25-261): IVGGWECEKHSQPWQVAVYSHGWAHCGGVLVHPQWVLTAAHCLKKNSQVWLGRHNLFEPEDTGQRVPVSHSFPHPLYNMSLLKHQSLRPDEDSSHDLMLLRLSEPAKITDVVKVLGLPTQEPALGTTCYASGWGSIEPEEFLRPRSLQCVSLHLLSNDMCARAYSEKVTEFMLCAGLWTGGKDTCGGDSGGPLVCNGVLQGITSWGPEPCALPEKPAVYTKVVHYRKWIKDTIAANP
The target in experiment [12] is T2, PSA. Briefly: other, IFMA.

Turning to CVFAHNYDYLVC (disulfide 1-12 (inferred); also: GST fusion, site not given here) [GST-B-2], the binding result in experiment [1], in [5], in experiment [6], in experiment [10] and in [11] was “no binding” each time. The Kd turned out to be 3500 nM in experiment [2]; 800 nM in experiment [3]; 3100 nM in experiment [4]; 600 nM in [7]; 3500 nM in experiment [9]. Moreover, the IC50 in experiment [8] is 1 nM.
Consider CVFTSDYAFC (disulfide 1-10 (inferred); also: GST fusion, site not given here) [GST-A-1], for which the binding result in experiment [1], in experiment [5], in [6], in [10] and in experiment [11] was “no binding” each time. Moreover, the Kd in [2] stood at 7800 nM; in experiment [3], 1000 nM; in experiment [4] it was 2600 nM; in [7], 1400 nM; in [9] it was 7800 nM. This molecule also showed an IC50 in [8] of 3.3 nM.
CLSTCAQSCRISC (also: GST fusion, disulfide pairing not given here) [GST-D-1]: in experiment [12], the binding result was “no binding”.
For the molecule CVAYCIEHHCWTC (disulfide 1-13, 5-10; also: GST fusion, site not given here) [GST-C-4], the binding result in experiment [1], in experiment [5], in [6], in experiment [10] and in experiment [11] was “no binding” throughout. Besides, binding in experiment [3] was put at a Kd of 860 nM. The IC50 in [8] stood at 0.7 nM.
